Assay [1] concerns the target myc-tagged PSF (full-length) (UniProt Q8VIJ6). Put plainly: co-IP.
Assay [2] addresses T1, myc-tagged PSF (full-length) (UniProt Q8VIJ6 1-699).
T1 sequence: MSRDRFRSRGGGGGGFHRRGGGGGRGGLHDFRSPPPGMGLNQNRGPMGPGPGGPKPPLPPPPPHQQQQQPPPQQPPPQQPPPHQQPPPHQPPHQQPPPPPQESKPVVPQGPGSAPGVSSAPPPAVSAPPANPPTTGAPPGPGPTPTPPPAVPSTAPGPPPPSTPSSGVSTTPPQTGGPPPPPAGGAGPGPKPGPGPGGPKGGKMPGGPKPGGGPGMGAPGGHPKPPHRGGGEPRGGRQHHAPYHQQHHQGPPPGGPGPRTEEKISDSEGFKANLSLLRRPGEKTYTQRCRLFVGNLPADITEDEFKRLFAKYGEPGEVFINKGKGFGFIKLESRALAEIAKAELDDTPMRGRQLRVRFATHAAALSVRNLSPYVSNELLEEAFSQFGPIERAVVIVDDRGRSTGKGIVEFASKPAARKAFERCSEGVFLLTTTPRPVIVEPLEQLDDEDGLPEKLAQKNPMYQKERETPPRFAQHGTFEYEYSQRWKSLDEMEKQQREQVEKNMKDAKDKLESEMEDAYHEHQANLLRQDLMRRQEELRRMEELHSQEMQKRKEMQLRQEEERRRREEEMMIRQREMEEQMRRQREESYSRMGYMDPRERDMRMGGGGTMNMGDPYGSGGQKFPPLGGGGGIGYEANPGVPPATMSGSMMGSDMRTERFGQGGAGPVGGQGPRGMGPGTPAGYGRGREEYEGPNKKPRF
Put plainly: co-IP.

For “myc-tagged Fox-3-S (from UniProt Q8BIF2-5 1-327) (natural protein)”, in assay [1], the fold more efficiently pulled down by PSF than Fox-1 worked out at 7 fold and the fold more efficiently pulled down by PSF than Fox-2 is 2.7 fold.

B1: myc–Fox-3-L (natural protein)
chain: MAQPYPPAQYPPPPQNGIPAEYAPPPPHPTQDYSGQTPVPPEHGMTLYTPAQTHPEQPGTEASTQPIAGTQTVPQADEAAQTDNQQLHPSDPTEKQQPKRLHVSNIPFRFRDPDLRQMFGQFGKILDVEIIFNERGSKGFGFVTFETSSDADRAREKLNGTIVEGRKIEVNNATARVMTNKKPGNPYANGWKLNPVVGTVYGPEFYAVTSFPYPTTGTAVAYRGAHLRGRGRAVYNTFRAAPPPPPIPTYGAALEQTLVKMPVPWAGLAPCPLPPQQTPEPAYPTSPAFPPLSCPFASRVVYQDGFYGAEIYGGYAAYRYAQPAAATAAAYSDSYGRVYAAADPYHHTIGPTATYSIGTMASLCRGGYSRFTPY
For B1, in assay [2], the “fold more efficiently pulled down by PSF than Fox-1” value is 7 fold and the “fold more efficiently pulled down by PSF than Fox-2” value was 2.7 fold.
